How the values were obtained:
Format in all cases: cell-based, human
[1] = test system: AXL phosphorylation in DU145 cells; test: AXL phosphorylation (phospho-RTK array, immunoblot); settings: serum-starved DU145, 1 μg/ml protein
Description: FIGS. 12A-F. RNASE4 induces AXL phosphorylation. (A) Human phospho-receptor tyrosine kinase (RTK) antibody array analysis. Serum-starved DU145 cells were treated with or without 1 μg/ml of RNASE4 for 5 minutes. A total of 1.5 mg cell lysate protein was blotted on each array membrane. […] (B) Immunoblot analysis of RNASE4-stimulated AXL phosphorylation. DU145 cells were serum-starved overnight and treated with 1 μg/ml of RNASE4 for the indicated time. Cell lysates were analyzed by antibodies against total AXL and phospho-AXL, with β-actin as the loading control. Left panels, immunoblots; right panel, Image J quantification of p-AXL normalized to total AXL. (C) Immunoblot analysis of phospho-AXL in response to stimulation by ANG, RNase A, and RNASE4. DU145 cells were serum-starved overnight and treated with 1 μg/ml of ANG, RNase A, or RNASE4 for 15 minutes. Left panels, immunoblots; right panel, quantification. (D) Effect of AXL inhibitor R428 on RNASE4-induced cell proliferation. Serum-starved DU145 cells were incubated with 1 or 3 μM R428 for 3 hours and then stimulated by 1 μg/ml of RNASE4 for 3 days. Cell numbers were determined by MTT assay. Data shown are means±SEM of a representative experiment (in triplicates) of 3 independent repeats. **P≤0.01 and ***P≤0.001, by unpaired two-tailed Student's t test. (E) Effect of AXL inhibitor R428 on RNASE4-induced AKT and P6 phosphorylation. Serum-starved DU145 cells were incubated with 1 or 3 μM R428 for 3 hours and then stimulated by 1 μg/ml of RNASE4 for 5 minutes. Cell lysates were analyzed for AKT and P6 phosphorylation by immunoblotting. Top panels, immunoblots; bottom panels, quantification of phospho-AKT and phospho-S6 by Image J analyses normalized to total AKT and P6, respectively. (F) Schematic presentation of proposed involvement of AXL in RNASE4-stimulated cellular events.
(§1) Human Phospho-RTK Arrays were purchased from R&D Systems. […] Protein concentrations were quantified by Bradford Assay and 1.5 mg cell lysate was used per array. Pixel densities on were analyzed by ImageJ. […]

[2] = test system: AXL phosphorylation in PC-3 cells; test: as above; settings: serum-starved PC-3, 1 μg/ml RNASE4
Description: FIGS. 11A-F. RNASE4 induces PC-3 cell proliferation and phosphorylation of AKT and S6. (A) Exogenous RNASE4 (1 μg/ml) stimulates PC-3 cells proliferation in the presence of 2% FBS. Cell numbers were determined by MTT assay. (B) Time course of AKT and S6 phosphorylation of serum-starved PC-3 cells by RNASE4 (1 μg/ml). Left panels, immunoblots; right panels, quantification of p-AKT and p-S6 normalized to total AKT and S6 by Image J. (C) Effect of AKT inhibitor MK-2206, PI3K inhibitors LY294002 and Wortmannin, and mTOR inhibitor Rapamycin on RNASE4-induced PC-3 cell proliferation. Cells were pre-incubated with the inhibitors at the indicated concentrations for 1 hour prior to be stimulated by RNASE4 (1 μg/ml) for 3 days. Cell numbers were determined by MTT assay. (D) Human phospho-RTK antibody array analysis of starved PC-3 cells treated with or without 1 μg/ml RNASE4 for 5 minutes. (E) Time course of AXL phosphorylation stimulated by RNASE4 in PC-3 cells. […] Cell lysates were analyzed for total AXL and phopho-AXL by immunoblotting. Left panels, immunoblots; right panel, quantification phospho-AXL normalized to total AXL by Image J analysis. […] Cell numbers were determined by MTT assay. […]
as §1

DU145 cells = test: RNASE4 knockdown, colony formation in soft agar; settings: DU145, exogenous RNASE4 1 μg/ml, 14 days
Excerpt: FIGS. 14A-D. RNASE4 knockdown inhibits DU145 cell proliferation in vitro and colony formation in soft agar. (A) Immunoblot analysis of RNASE4 in DU145 cells stably transfected with shControl, shRNASE4-1, and shRNASE4-2. (B) qRT-PCR analysis of RNASE4 mRNA normalized to GAPDH in DU145 cells stably transfected with shControl, shRNASE4-1, and shRNASE4-2. (C) Effect of RNASE4 knockdown on cell proliferation. Cell numbers were counted by Coulter counter. Exogenous RNASE4, when presented, was at the concentration of 1 μg/ml. Data shown are from a representative experiment in triplicates of 3 independent experiments. (D) Effects of RNASE4 knockdown on colonies formation and growth of DU145 cells in soft agar. The same numbers of control and RNASE4 knockdown cells were seeded in soft agar, and grown in the absence or presence of 1 μg/ml of RNASE4 for 14 days. Colonies were counted and size measured on a Nikon Eclipse ti microscope. Top panels, representative images of colonies; scale bars=100 μm. Bottom panels, quantification of DU145 cell colonies and sizes in soft agar. Data shown are means±SEM of five randomly selected fields per dish from a representative experiment. **P≤0.01 and ***P≤0.001, by two-tailed Student's t test.
Lentiviral mediated shRNA system (pGIPZ, Open Biosystems) was used to generate control and RNASE4 knockdown cell lines. […]

B1: RNASE4: recombinant human RNASE4 protein from pET11 expression in E. coli, purified by reversed-phase HPLC; added exogenously (protein, UniProt P34096 29-147, looked up)
Ribonuclease 4: QDGMYQRFLRQHVHPEETGGSDRYCNLMMQRRKMTLYHCKRFNTFIHEDIWNIRSICSTTNIQCKNGKMNCHEGVVKVTDCRDTGSSRAPNCRYRAIASTRRVVIACEGNPQVPVHFDG
In the case of B1, the “phosphorylation of AXL” value [1] is reported as “induced phosphorylation”, the “phosphorylation of AXL” value [2] is reported as “induced phosphorylation” and the “rescue of the effect of RNASE4 knockdown on colony formation” value (DU145 cells) is reported as “able to rescue”.
